T1: Recombinant Human IL-7R alpha/CD127 Fc Avi-tag Protein, CF (R&D Systems #AVI10317-050) (human, UniProt P16871 21-239)
T1 construct: Bought construct; It was loaded on streptavidin (SAX/SAX2) biosensors; not shown: Fc and Avi-tag of a bought protein
T1 sequence (looked up): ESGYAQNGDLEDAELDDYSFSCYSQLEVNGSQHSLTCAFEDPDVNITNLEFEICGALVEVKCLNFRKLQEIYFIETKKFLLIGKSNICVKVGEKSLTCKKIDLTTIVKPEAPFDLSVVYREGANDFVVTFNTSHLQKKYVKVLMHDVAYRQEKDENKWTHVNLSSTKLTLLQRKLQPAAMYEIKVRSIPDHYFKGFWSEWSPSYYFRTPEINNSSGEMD

B1: LZM-009 (antibody, V domains shown)
VH: QVQLVQSGAEVKKPGASVKVSCKASGYTFTSYYMYWVRQAPGQGLEWMGGVNPSNGGTNFNEKFKSRVTITADKSTSTAYMELSSLRSEDTAVYYCARRDYRYDMGFDYWGQGTTVTVSS
VL: EIVLTQSPATLSLSPGERATISCRASKGVSTSGYSYLHWYQQKPGQAPRLLIYLASYLESGVPARFSGSGSGTDFTLTISSLEPEDFATYYCQHSRELPLTFGTGTKVEIK
notes: It is a whole antibody with an Fc region (conjugated at K248)
B2: CMP-041, LZM-009 conjugated to synthetic IL-7 (WT) CMP-108, DAR 1, at K248 (other)
VH: QVQLVQSGAEVKKPGASVKVSCKASGYTFTSYYMYWVRQAPGQGLEWMGGVNPSNGGTNFNEKFKSRVTITADKSTSTAYMELSSLRSEDTAVYYCARRDYRYDMGFDYWGQGTTVTVSS
VL: EIVLTQSPATLSLSPGERATISCRASKGVSTSGYSYLHWYQQKPGQAPRLLIYLASYLESGVPARFSGSGSGTDFTLTISSLEPEDFATYYCQHSRELPLTFGTGTKVEIK
chain: DCDIEGKDGKQYESVLXVSIDQLLDSXKEIGSNCLXNEFNFFKRHICDANKEGXFLFRAARKLRQFLKXNSTGDFXLHLLKVSEGTTILLNCTGQVKGRKPAALGEAQPTKSLXENKSLKEQKKLNDLCFLKRLLQEIKTCWNKILXGTKEH
modifications: not fully specified; norleucine (Nle) at 17, 27, 54, 69, 147; homoserine (Hse) at 36, 76, 114; N-terminal glutaryl-PEG9-azide reacted with the DBCO linker on the antibody; K248 (EU numbering) of the Fc region carries the linker to IL-7 (DAR 1)
notes: Immunocytokine (chemical conjugate, not a fusion)

How the values were obtained:
[1] = target: T2, Biotinylated Recombinant Human PD-1 (CD279)-Fc Chimera (carrier-free), Biolegend #789406 (human, UniProt Q15116 25-167, biotinylated); test: Direct huPD1 ELISA: antibody coated on the plate, serial dilution of biotinylated human PD-1-Fc (x axis 'Biotin PD1 (nM)'), signal at 450 nm
T2 construct: Bought PD-1-Fc; also called h-PD1 Fc; not shown: Fc part of a bought chimera

[2] = target: T2, Biotinylated Recombinant Human PD-1 …; test: ELISA: antibody coated on the plate, serial dilution of biotinylated human PD-1-Fc, streptavidin-HRP, OD 450 nm (x axis printed as 'Molecule (nM)')
Procedure: (§1) Each of these variant conjugates and unmodified antibodies are assayed by ELISA for their ability to bind to human PD-1 according to the following protocol.
(§2) Streptavidin-HRP is Sigma #RABHRP3. TMB solution is 3,3′,5,5′-Tetramethylbenzidine (Sigma T0440). Stop solution is Sigma #CL07STOP solution (0.5M H₂SO₄). Buffers are: Coating buffer is PBS. Wash buffer is PBS-0.02% Tween20. Blocking buffer is PBS-0.02% Tween20 1% BSA. Protein diluent is PBS-0.02% Tween20 0.1% BSA. STOP solution is 0.5M H₂SO₄. Procedure: Immunocytokines and parental antibody are coated overnight at 4° C. The ELISA plates are washed 4 times with 100 μl PBS-0.02% Tween20. and blocked with PBS-1% BSA. A serial dilution of h-PD1 Fc is prepared and plates are incubated for two hours at 37° C., with shaking (600 rpm). ELISA plates are washed and incubated with Streptavidin-HRP 30 min at RT, with shaking (600 rpm). ELISA plates are washed and incubated with ready-to-use TMB solution. Reaction is stopped and plates are read by OD450 on an Enspire plate reader.

[3] = target: T2, Biotinylated Recombinant Human PD-1 …; test: ELISA: immunocytokine coated on the plate, serial dilution of biotinylated human PD-1-Fc, streptavidin-HRP, OD 450 nm (x axis printed as 'Molecule (nM)')
Procedure: as §1, §2

[4] = target: T1, Recombinant Human IL-7R alpha/CD127 Fc …; test: BLI (Octet R8); CD127-Fc-Avi loaded on SAX2 sensor, immunocytokine as analyte
[5] = target: T2, Biotinylated Recombinant Human PD-1 …; test: Direct huPD1 ELISA: immunocytokine coated on the plate, serial dilution of biotinylated human PD-1-Fc (x axis 'Biotin PD1 (nM)'), signal at 450 nm
Procedure: as §1, §2

T2 sequence (Q15116 25-167, change not shown): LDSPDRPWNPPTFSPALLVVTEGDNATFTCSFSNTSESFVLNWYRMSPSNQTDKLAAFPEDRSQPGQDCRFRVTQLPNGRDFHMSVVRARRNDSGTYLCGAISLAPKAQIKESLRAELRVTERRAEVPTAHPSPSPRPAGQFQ

Binder | EC50 [1] [nM] | EC50 [2] [nM] | EC50 [3] [nM] | koff [4] [s⁻¹] | kon [4] [M⁻¹ s⁻¹] | EC50 [5] [nM]
B1 | 0.035 | 0.035 |  |  |  | 
B2 |  |  | 0.0348 | 0.00979 | 2.95e+06 | 0.0348
